Source: PMC11161652, “ASXLs binding to the PHD2/3 fingers of MLL4 provides a mechanism for the recruitment of BAP1 to active enhancers” (Nature Communications, 2024)
Residue numbers refer to the chain shown, from its start.

What was measured:
Details in all cases: both partners purified
MLL4_(PHD2/3) S286A = biological target: T1, MLL4_(PHD2/3) S286A (human, UniProt O14686 227-324, S286A); assay: other fluorescence titration; tryptophan fluorescence, 25 °C; 1.0 µM MLL4 PHD2/3 or MLL3 PHD2/3 with increasing peptide; excitation 295 nm; 20 mM Tris pH 7.2, 150 mM NaCl, 1 mM TCEP, 0.02% Tween20; average of three measurements
T1 construct: human MLL4 (KMT2D), aa 227-324; source: E. coli BL21-CodonPlus, purified as WT
T1 sequence (looked up): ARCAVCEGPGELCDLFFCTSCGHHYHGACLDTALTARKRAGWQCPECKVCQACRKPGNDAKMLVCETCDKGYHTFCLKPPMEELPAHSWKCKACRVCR

[1] = biological target: T2, PHD2 and PHD3 fingers of human MLL4 (aa 227-324) (human, UniProt O14686 227-324); assay: as above
T2 construct: PHD2 and PHD3 fingers of human MLL4 (KMT2D), aa 227-324; also called MLL4_(PHD2/3); MLL4 PHD2/3; source: E. coli BL21-CodonPlus, purified (glutathione agarose, PreScission cleavage; unlabeled proteins also SEC)
T2 sequence (looked up): T1 sequence (looked up) with A60S

MLL3_(PHD2/3) D372K = biological target: T3, MLL3_(PHD2/3) D372K (human, UniProt Q8NEZ4 342-439, D372K); assay: not stated; fluorescence spectroscopy or NMR: the legends of Fig. 3c and Fig. 4b say that values marked (a) are from NMR and the others from fluorescence; the text does not tell which for these pairs
T3 construct: human MLL3 (KMT2C), aa 342-439; source: E. coli BL21-CodonPlus, purified as WT
T3 sequence (looked up): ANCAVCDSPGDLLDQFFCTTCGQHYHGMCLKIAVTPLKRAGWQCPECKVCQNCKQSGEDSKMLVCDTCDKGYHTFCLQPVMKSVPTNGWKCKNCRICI

MLL4_(PHD2/3) D285K = biological target: T4, MLL4_(PHD2/3) D285K (human, UniProt O14686 227-324, D285K); assay: as above
T4 construct: human MLL4 (KMT2D), aa 227-324; source: E. coli BL21-CodonPlus, purified as WT
T4 sequence (looked up): T1 sequence (looked up) with D59K, A60S

MLL3_(PHD2/3) D400K = biological target: T5, MLL3_(PHD2/3) D400K (human, UniProt Q8NEZ4 342-439, D400K); assay: as above
T5 construct: human MLL3 (KMT2C), aa 342-439; source: E. coli BL21-CodonPlus, purified as WT
T5 sequence (looked up): T3 sequence (looked up) with K31D, D59K

Kd (MLL4_(PHD2/3) S286A): 800 nM
Kd [1]: 700 nM
fold reduction in binding against wild type MLL3_(PHD2/3) (MLL3_(PHD2/3) D372K): ~40 fold
Kd (MLL4_(PHD2/3) D285K): ~1.7 mM
fold reduction in binding against wild type MLL3_(PHD2/3) (MLL3_(PHD2/3) D400K): 400 fold
B1: ASXL2 peptide (residues 650-670 of ASXL2) (peptide, UniProt Q76L83 650-670, looked up)
peptide: NRTGARTLADIKAKAQLVKAQ
notes: also called ASXL2 (aa 650-670); MBH of ASXL2; source: synthetic peptide (SynPeptide)
